Tests used:
[1] = target: His6-tagged human GBP1 C589S (CaaX box mutant) (human) (UniProt P32455); test: SEC; Superdex 200 10/300 GL on AKTA FPLC; 100 ug protein; 20 mM Tris (7.5), 140 mM NaCl, 2 mM MgCl2 with 200 uM GDP-AlF4- (transition state analogue); monomer to dimer
[2] = target: tag-free recombinant human GBP1, farnesylated (human) (UniProt P32455); test: cryo-EM structure; cryo-electron tomography (300 kV) with sub-tomogram averaging of tag-free GBP1 coat assembled on Stm ΔwaaG::pBAD-ftsZ OMVs/minicells in the presence of GTP; 12,858 particles; dimer mask and monomer mask

stoichiometry N [1]	stoichiometry N [2]	Substance
2		His6-tagged human GBP1 C589S (CaaX box mutant) (from UniProt P32455 1-592) (natural protein)
	2	tag-free recombinant human GBP1, farnesylated (from UniProt P32455 1-592) (natural protein)

— paper PMC12091997
